{
  "source": "patent US20060019893",
  "proteins": {"B1": {"name": "wildtype FVIIa (protein)", "chain 1": "ANAFLEELRPGSLERECKEEQCSFEEAREIFKDAERTKLFWISYSDGDQCASSPCQNGGSCKDQLQSYICFCLPAFEGRNCETHKDDQLICVNENGGCEQYCSDHTGTKRSCRCHEGYSLLADGVSCTPTVEYPCGKIPILEKRNASKPQGR", "chain 2": "IVGGKVCPKGECPWQVLLLVNGAQLCGGTLINTIWVVSAAHCFDKIKNWRNLIAVLGEHDLSEHDGDEQSRRVAQVIIPSTYVPGTTNHDIALLRLHQPVVLTDHVVPLCLPERTFSERTLAFVRFSLVSGWGQLLDRGATALELMVLNVPRLMTQDCLQQSRKVGDSPNITEYMFCAGYSDGSKDSCKGDSGGPHATHYRGTWYLTGIVSWGQGCATVGHFGVYTRVSQYIEWLQKLMRSEPRPGVLLRAPFP"}},
  "molecular_target": "human FX, P00742",
  "sequence (P00742 whole entry, looked up)": "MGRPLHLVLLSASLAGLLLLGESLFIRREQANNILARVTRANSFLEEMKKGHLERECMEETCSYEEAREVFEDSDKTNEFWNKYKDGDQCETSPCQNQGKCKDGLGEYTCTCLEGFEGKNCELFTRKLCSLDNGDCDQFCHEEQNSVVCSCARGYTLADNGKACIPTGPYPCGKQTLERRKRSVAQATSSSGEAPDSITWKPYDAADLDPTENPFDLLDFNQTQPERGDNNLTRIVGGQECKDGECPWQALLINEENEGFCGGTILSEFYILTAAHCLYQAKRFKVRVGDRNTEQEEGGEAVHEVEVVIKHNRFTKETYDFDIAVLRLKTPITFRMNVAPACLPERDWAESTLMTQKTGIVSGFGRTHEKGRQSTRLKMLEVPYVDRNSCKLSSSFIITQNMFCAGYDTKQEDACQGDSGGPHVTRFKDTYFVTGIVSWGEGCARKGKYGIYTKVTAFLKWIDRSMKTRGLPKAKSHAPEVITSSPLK",
  "data": [
    {"protein": "B1", "values": [
      {"measurement": "Km, FX activation by relipidated TF•FVIIa (0.4 nM relipidated TF, 1 nM FVIIa)", "result": 0.13, "unit": "µM"},
      {"measurement": "Vmax, FX activation by relipidated TF•FVIIa (0.4 nM relipidated TF, 1 nM FVIIa)", "result": 600, "unit": "mOD405/min"},
      {"measurement": "Vmax/Km, FX activation by relipidated TF•FVIIa (mOD405/min/nM)", "result": 4.6}
    ]}
  ]
}
